Reference: patent publication US20090068174A1, “THERAPEUTIC ALKALINE PROTEASE COMPOSITIONS AND USE IN FACILITATING THE TRANSPORT OF AGENTS ACROSS THE GASTROINTESTINAL MUCOSAL LINING” (Kansas University Medical Center Research Institute, Inc., priority 2007, published 2009)

Columns and labels:
TNF-α [1] = molecular target: T1, TNF-α (Mus musculus, UniProt P06804); experiment: Protease-treated TNF-α injected i.p. into mice, activated caspase-3 in intestine; type: in vivo; conditions: TNF-α treated with protease for 2 h, intestine 1 h later
T1 sequence (P06804 80-235 limits assumed): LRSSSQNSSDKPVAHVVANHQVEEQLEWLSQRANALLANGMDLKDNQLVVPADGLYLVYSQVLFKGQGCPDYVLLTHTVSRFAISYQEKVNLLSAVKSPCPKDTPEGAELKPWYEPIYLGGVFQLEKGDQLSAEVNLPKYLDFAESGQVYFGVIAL
Description: TNF-α was first treated either with PBS, AP or D for 2 h, the reaction mixtures were inactivated by the addition of FBS, and the cytokine-protease mixtures were injected i.p. into mice. (A) One hour later the mice were euthanized, samples of their intestines were collected and fixed, and tissue sections were analyzed by immunohistology for the expression of activated caspase-3. These are the results are shown in which data are expressed in two forms: (B) the frequency distributions of sections expressing different levels of activated caspase-3; and (C) the percentages of tissue sections in which 10% or more of the villi stained for activated caspase-3.
A series of experiments was performed in which the activation of caspase-3 within the intestine was measured. […] One hour later the mice were euthanized, samples of their intestines were collected and fixed, and tissue sections were analyzed by immunohistology for the expression of activated caspase-3 (FIG. 21-22). […]
Mice were injected i.p. with 5 ng of recombinant mouse TNF-α or protease-treated TNF-α, and 2 cm segments of their duodenums were collected 1 h later. […] The sections were first treated with rabbit antibody to activated (cleaved) mouse caspase-3, and bound antibody was detected using a Histostain-SP kit. […] At least 48 sections were analyzed in this fashion from each mouse.

mouse recombinant IFN-γ = molecular target: T2, mouse recombinant IFN-γ (Mus musculus, UniProt P01580); experiment: Cleavage of mouse IFN-γ (Western blotting); type: biochemical; conditions: 100 ng cytokine, 37° C. overnight, Western blot
T2 sequence (P01580 23-155): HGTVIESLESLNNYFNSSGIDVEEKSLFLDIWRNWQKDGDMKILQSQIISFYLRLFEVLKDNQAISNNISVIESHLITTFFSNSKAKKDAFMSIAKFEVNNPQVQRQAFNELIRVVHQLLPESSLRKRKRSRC
Description: (§1) Degradation of mouse recombinant TNF-α: (A) or IFN-γ (B) following treatment with: the protease powder prepared according to Example 1 (preparation), purified alkaline protease (AP); Pseudomonas elastase (E); and buffered-treated control (C). The cytokines (100 ng each) were incubated at 37° C. overnight with the indicated quantities (ng) of enzymes, and then analyzed by Western blotting for evidence of degradation. A scan of AP-treated mouse TNF-α (left-hand Western blot) showing the decreasing density of the top band as a function of alkaline protease concentration (C).
(§2) Because the anti-TNF-α used here was specific for an epitope located in the carboxyl terminus of the cytokine, the pattern of cleavage is most consistent with attack at the amino terminus of TNF-α (e.g., there is a loss of molecular mass without a loss of the epitope recognized by the antibody).

[2] = Protease stability and solubility in water; type: physicochemical
Description: For determining the stability of the alkaline protease in drinking water over 0-4 days, proteases can be dissolved in autoclaved tap water at a concentration of 1 mg/ml and stored at either 25° C. or 4° C. At regular intervals (every 3 hours at 0-18 hours, every 8 hours at 18-24 hours, and every 12 hours at 24-96 hours), aliquots can be ascetically removed and tested for their ability to cleave protamine sulfate using a modification of the ninhydrin assay of Rosen. Results are expressed as % residual activity measured immediately after preparation of the protease solutions.

established IBD = experiment: Established IBD in the hapten model in SJL mice; type: in vivo, mouse
Description: SJL mice can be given TNBS by enema for the induction of colitis, and their body weights can be monitored every 3 days. When there has been a decrease in body mass by at least 15% (typically day 7), the animals can be given either four i.p. injections of 10 μg alkaline protease every 12 hours (Group 1) or administered alkaline protease in their drinking water at a concentration found above to decrease IBD parameters (Group 2). A control group can be challenged with TNBS, but would not receive protease (Group 3). Body weights can then be monitored daily, and at the end of one week, mice are euthanized and tissues taken for scoring the various histopathological and immunohistochemical parameters as known in the art.

mouse recombinant TNF-α = molecular target: T3, mouse recombinant TNF-α (Mus musculus, UniProt P06804); experiment: Cleavage of mouse TNF-α (Western blotting); type: biochemical; conditions: 100 ng cytokine, 37° C. overnight, Western blot
T3 sequence (P06804 80-235 limits assumed): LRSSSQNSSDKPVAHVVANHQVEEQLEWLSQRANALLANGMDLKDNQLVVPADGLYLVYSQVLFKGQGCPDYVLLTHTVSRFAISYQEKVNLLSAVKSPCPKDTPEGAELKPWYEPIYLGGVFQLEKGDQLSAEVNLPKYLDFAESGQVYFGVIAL
Description: as §1, §2

TNF-α [3] = molecular target: T1, TNF-α; experiment: Pretreatment of mice with protease before TNF-α challenge, activated caspase-3 in intestine; type: in vivo
Description: In this figure, various amounts of deutrolysin and alkaline protease were administered to mice 15 min prior to challenge with TNF-α. Intestinal tissues were again recovered 1 h later and the expression of activated caspase-3 was measured. […] (B) The ability of AP to provide protection against the apoptotic effects of TNF-α in vivo was limited in its duration. Thus, pretreatment of the mice for up to 30 min prior to TNF-α challenge prevented caspase-3 activation, whereas delaying cytokine challenge beyond 30 min diminished the protective effect of the protease.
A modification of this experiment was then performed by injecting various amounts of the proteases for 15 min prior to challenge with TNF-α (FIG. 22). Intestinal tissues were again recovered 1 h later and the expression of activated caspase-3 was measured. […]
Mice were injected i.p. with 5 ng of recombinant mouse TNF-α or protease-treated TNF-α, and 2 cm segments of their duodenums were collected 1 h later. […] The sections were first treated with rabbit antibody to activated (cleaved) mouse caspase-3, and bound antibody was detected using a Histostain-SP kit. For each mouse, tissues were scored by enumerating the number of sections in which less than 10%, 10-50%, or >50% of the intestinal villi expressed activated caspase-3. At least 48 sections were analyzed in this fashion from each mouse.

B1: Alkaline Protease: Aspergillus oryzae alkaline protease (oryzin), SEQ ID NO: 2, purified from the protease powder of Example 1 (protein, listed as Aspergillus oryzae)
chain: MQSIKRTLLLLGAILPAVLGAPVQETRRAAEKLPGKYIVTFKPGIDEAKIQEHTTWATNIHQRSLERRGATGGDLPVGIERNYKINKFAAYAGSFDDATIEEIRKNEDVAYVEEDQIYYLDGLTTQKSAPWGLGSISHKGQQSTDYIYDTSAGEGTYAYVVDSGVNVDHEEFEGRASKAYNAAGGQHVDSIGHGTHVSGTIAGKTYGIAKKASILSVKVFQGESSSTSVILDGFNWAANDIVSKKRTSKAAINMSLGGGYSKAFNDAVENAFEQGVLSVVAAGNENSDAGQTSPASAPDAITVAAIQKSNNRASFSNFGKVVDVFAPGQDILSAWIGSSSATNTISGTSMATPHIVGLSLYLAALENLDGPAAVTKRIKELATKDWKDVKGSPNLLAYNGNA
- Ability of protease-treated TNF-α to activate caspase-3 in intestinal epithelial cells (TNF-α [1]): destroyed the ability of the cytokine to activate caspase-3
- Cleavage of mouse IFN-γ (mouse recombinant IFN-γ): partial degrades mouse IFN-γ
- Cleavage of mouse IFN-γ (mouse recombinant IFN-γ; listed as alkaline protease (AP)): evidenced the same substrate specificity
- Solubility in water [2]: soluble in water
- Stability of catalytic activity on storage ([2]; 4° C. storage): stable with 4 °C storage for several weeks
- Retention of activity in water ([2]; for 2 days): > 80%
- Effect on established IBD (established IBD): can reverse and/or lessen established IBD
- Cleavage of mouse TNF-α (mouse recombinant TNF-α): evidenced the same substrate specificity
- Pretreatment interval prior to TNF-α challenge that prevented caspase-3 activation (TNF-α [3]): up to 30 min
- Effect of protease pretreatment on action of TNF-α in vivo (activated caspase-3) (TNF-α [3]; protease 1-10 μg injected 15 min prior to TNF-α challenge, tissues 1 h later): blocked the action of TNF-α in vivo
